# Assay results reported in the RNAGym collection of RNA variant scans (doi:10.1073/pnas.2313332121).
# Variants at the floor of the assay were thinned out.
# B1: TPR 5TU (parent)
# chain: GGAUCUUCUCGAUCUAACAAAAAAGACAAAUCUGCCACAAAGCUUGAGAGCAUCUUCGGAUGCAGAGGCGGCAGCCUUCGGUGGCGCGAUAGCGCCAACGUUCUCAACUAUGACACGCAAAACGCGUGCUCCGUUGAAUGGAGUUUAUCAUG
# Variants of: B1
# Assay: polymerase ribozyme fitness, log enrichment relative to wild type (log ratio); higher = more active; in vitro selection for triplet polymerase activity
# Procedure, shortened: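 For each subunit of a heterodimeric triplet polymerase ribozyme, a mutant library was built by PCR and transcribed, then taken through a single in vitro selection round in triplicate. Selection involved annealing to a biotinylated primer, the partner subunit and triplets, incubation frozen at −7 °C, gel excision of extended constructs, capture on streptavidin beads and RT-PCR. Genotypes were retained after Illumina sequencing of inputs and outputs only with ≥10 input reads and ≥1 read in each output. Fitness is defined as the logarithm of a genotype's enrichment relative to wild-type enrichment, using inverse-variance-weighted averages across replicates, with the logarithm taken to base 2.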
row,Variant,polymerase ribozyme fitness (log ratio)
1,A73U C76G G94A,≤ -4.2
2,A47C C96A C123G U151G,≤ -4.2
3,C14U A66C U78G C95G C108U,≤ -4.2
4,C79U A91U C103G U135A,≤ -4.2
5,G68A G71C C95A C116U,≤ -4.2
6,U7G A26C U44A G74C A115C,≤ -4.2
7,A26U C118G,-2.12
8,G88A C95A C123A,≤ -4.2
9,G25U U56A G84U C95A C96U A119C G141U U148C C149A,≤ -4.2
10,A22U C96U,0.237
11,A12G C85U,0.000103
12,A12U G34C G46A G83A A121U G141U,≤ -4.2
13,A21G A91G A115U C116A,-3.91
14,A121C C123A U127C,-1.91
15,G83A U135G G141A,-3.78
16,C5G U55A G70C C85A C96U U151G,≤ -4.2
17,C93A U148C,-3.62
18,C51A C75U A98U,-3.28
19,C5U A142U,-0.885
20,C14U G42A C87U G136A,≤ -4.2
21,A39U U53A U56C A60C U61A G86U A89G,-4.17
22,A3C U15G A24G G117A U151A,≤ -4.2
23,A16C G50A C85U,-3.26
24,G88A A147C,-4.01

row,Variant,polymerase ribozyme fitness (log ratio)
1,A26G U55G C87A A115U C118U C149G,≤ -4.2
2,A37G U145G,-2.35
3,U55A C96U U127C U134C,-3.3
4,C10A C54G G80C G81A C85U C129A U135C,≤ -4.2
5,A40G G58C G94A G141A,-3.65
6,G67C G92U C99U A107U U148A,≤ -4.2
7,C36G C105U,-3.04
8,A39G G50A G81C U82C G92C G140A U151C G152C,≤ -4.2
9,G50A C95A U111A U135A,≤ -4.2
10,U7C U45G G83C G128U C132G A147C,≤ -4.2
11,A17G A37U U82C C96A,-2.2
12,C5U A23U A24C G46A C96U A137U,≤ -4.2
13,C32G A39C A41C A52U G94C C116G,≤ -4.2
14,U45A U56G A66C G67C G71U C85G G88U A89G C99U A110G C132G,≤ -4.2
15,U55A C85A G141C,-1.86
16,U4A C38U A41U G59A A137U,-4.07
17,A60U C85G G92C U102G,≤ -4.2
18,G46A A91G G136U,≤ -4.2
19,C18U A19G,-1.03
20,G86A A122U,-1.33
21,C8G G11C C14U G50C C95U C132A U135A A137C,≤ -4.2
22,U9A C75G C85G C95G,≤ -4.2
23,A52C G71C,≤ -4.2
24,U55A U82G C96G C116U G140C,-4.17

row,Variant,polymerase ribozyme fitness (log ratio)
1,A47U G83U A122U,-0.574
2,A3G U33G U55A A66C C108U,≤ -4.2
3,C87A C103U C108A A110C C132A,≤ -4.2
4,C10A A12U A47U C93G A137G,≤ -4.2
5,U61G G83A,-1.01
6,A12U U15G A39U G86U U102G C116U,≤ -4.2
7,C18U A28C C87G G124U U139G U146G,≤ -4.2
8,A12U C14G,-2.05
9,C75U A98G G112C A122U,≤ -4.2
10,C14U G50C A89U C93G G143U,≤ -4.2
11,G68A A119U A122U U148A,≤ -4.2
12,G83A G88A A91G G112U G140U G143C,≤ -4.2
13,G46C C93U,-2.47
14,U53C C118U C129G G141A,≤ -4.2
15,U53A C72G C85U U127A,≤ -4.2
16,A21U C85U,-0.171
17,A21U C51U A106U,-2.08
18,C14U G50A G58C A121C,-3.27
19,G94A C131U,0.309
20,C54U U78G C96G A113U,≤ -4.2
21,A73G C85G,-1.1
22,G59C G126C,0.783
23,U55A C63U C85U C105U,0.719
24,A16C A19G G34A G71A C87G U145A U146C,≤ -4.2

row,Variant,polymerase ribozyme fitness (log ratio)
1,C54U G92U A147U,0.0812
2,A12C C27U C35U A52C C75A A115C,≤ -4.2
3,U90A U130A,≤ -4.2
4,U44G G50A C57G C72G C114A G140C,≤ -4.2
5,G62A C116U,-0.0465
6,C32U G74A C93U,-0.21
7,G58C C85G U90A U139A G140U,≤ -4.2
8,U44A C131G,≤ -4.2
9,C54U G92A,-3
10,C57A C96A,-0.383
11,C10G C95U,-3.16
12,G25U U55G A73G A120C C123U,-3.39
13,A24U C35U G42C C93U G136C A142G,-4.03
14,G25C A28G G80C G83A,-4.19
15,C93U A119U G141A,-0.528
16,C85U G140U,-2.51
17,U44C C54U,-3.56
18,C85U C103G,-3.48
19,G50A U55G C87U,-1.24
20,A119U U134A,-2.99
21,A12U A47G C76A C85G,-3.78
22,A28U A40U A49C G68U U90G C96U A107G A110C,≤ -4.2
23,A23C C79A C103U A138G G143C,≤ -4.2
24,C35G A49U G124C,≤ -4.2

row,Variant,polymerase ribozyme fitness (log ratio)
1,A3U A16U A17G A23C C93U A106G A122G U139G,≤ -4.2
2,A29G U31C C36U C54G U82C G86C C93U,≤ -4.2
3,C5U A121G,0.614
4,A17U A37C C93G C96A,≤ -4.2
5,A3U A26U A29U A49C C87U C114U G141A,≤ -4.2
6,G50U A91U,≤ -4.2
7,G92U A138G,-3.48
8,A24U A28C A52G G71A C96G A137C,≤ -4.2
9,C18G A23C G34A A66U G84U U135A,≤ -4.2
10,U9A A16U C57U G70A C79A G88U C95U A119U U151A,≤ -4.2
11,A17G U31A U90C C93U C99G C125A A137C G143C,≤ -4.2
12,G25C A26U A30U A39U U56G U77A A138U,≤ -4.2
13,G84U C95U G143C,-3.33
14,U44A C76A A91G,≤ -4.2
15,C8U C79A G92A C105A,≤ -4.2
16,G11U A23U G68A U130G U135C,≤ -4.2
17,A41C A47C A60U,-2.01
18,C43U G74C C93G U146A,≤ -4.2
19,G58A A73U C96U,-0.178
20,G46U G83U A119U C123A U145C,-3.34
21,G133U U135G,-4.04
22,U4C A24U G81A C85U A89C,-0.962
23,A107U C118G A147U C149G U151G,≤ -4.2
24,A41G G94C,0.425

row,Variant,polymerase ribozyme fitness (log ratio)
1,A52G A97U,-0.8
2,C38A G94A,-0.134
3,A91C U102G A138C,≤ -4.2
4,G48A U56A U109G,-1.39
5,G94C G133A,-4.02
6,U9C U13A U15A C76U G86U,-4.11
7,G94C G100C C131U G133C C149G,≤ -4.2
8,G25C C75U A91G C99A G124U U134A,≤ -4.2
9,A19G G86A,-1.36
10,A20U A60C A73G,-2.81
11,G84A G128U,-3.84
12,A3G A97C A107G,≤ -4.2
13,C27U A41C C95U C125U,-2.83
14,A40U C43U G70A U78G C87A A147G,≤ -4.2
15,C10A A17C A20C G34U G58C U90G,≤ -4.2
16,G83A C132G G133C,-2.67
17,U4G C10U G83U A98U C105U,-0.982
18,C85G C93A,≤ -4.2
19,A91C U144C,-4.19
20,C51U U139G U144A,0.259
21,A23U A49C U61G C87A,≤ -4.2
22,A16G A29G A47U C57U A73C C93G A98G A115G,≤ -4.2
23,C32U A52C U55G C57A,-3.11
24,C32U U56A G58A G68A C76A C93A,≤ -4.2

row,Variant,polymerase ribozyme fitness (log ratio)
1,G50C G74C A120G G124U G126A,≤ -4.2
2,C51U C85G A106G,-2.8
3,G25U A41G C93G A113U A150U,≤ -4.2
4,U4A C93A,-1.38
5,C105U G124U,-0.374
6,C10A A37U G48A A64G G128U A142C,≤ -4.2
7,G83A C108U C125G,-3.77
8,U109A G124A G140C,≤ -4.2
9,C36G C51U C54U C93G,≤ -4.2
10,C54U G59C A60U A66C,≤ -4.2
11,A49C A66G,≤ -4.2
12,C54U G71C C116U G136A U146C,-3.51
13,C35U U77A C149A,≤ -4.2
14,A137U U144G,-4.2
15,A12G C18U G83U A89G C96U,-1.73
16,A60U A64C A89U C116G G133C A147C U148C,≤ -4.2
17,U31A A91G U144G,-1.84
18,C14G C93U,-3.66
19,C14U A21G A24C A28U U53C C75U,≤ -4.2
20,C43G C95U C96A,-4.15
21,C10A U15G G58A G86U A98G A138U,≤ -4.2
22,A73G A98G,0.461
23,A39U A60U G70A,≤ -4.2
